From a protein production outcome set (Wang et al. 2014)

Experiment: label from the status in PepcDB records

Row | Sequence | protein production
1 | MVKSFPKGKHRQRIRLWLGSLVLAALLVGGGLFSWYHWRSPSLKPLYTLTVEAPPQTLPELEQWAQSADLLKRDRARYLLAVESLSQRQPQVALQWLQNLEQTYRPMAAPILLLRAEAYRQQGDSRRAQETWEQLLRDYGSEPEAAIALLSLNQPQRAIARFPQHPAVVHYVAQQLEKNPDQVPYLKLVARYGLFLQGYGTYLEILRQRYADQLTPADWEAIAFGYWEKMQYAPAAEAYAKARPTPLNLYRVGRGRQLSGERTGAIAAYQALIQRFPNSSEAALAQLRLARLAKTAAERLPLLAKCLQLATENQAPAIAADALLEQYQAYRELGNTKGAQQSQQQLFKTYPQSSAAAELRWQLAQGAAQKRQWSQAQQWVREILKFNPESELAARAAFWQGKWQGEAGQPQAQRQTWQLVTERYPHTYYAWRAASLLQKPVGTFTTLRQQRPSVAGDRQPLLPLATGSPTLQELYLLRQFQEAWQRWQWEFQNRVTPTAAEQLTDGLIRLGVGEYLDGIFMLQNLFTRAAREPQVATFFAPIRRDLRFWYALYPLPYWELVKKWSLAHNLNPLLVMALIRQESRFEKDIRSVVGATGLMQLMPETAAWIAQQLNLEDYSLVDPEHNIRLGTWYFDYTHNQYNQNTLLALASYNAGPGNVSQWLERFDIGDSDRFVESIPFPETYGYVKSVLENYWNYWQLYAQP | failed
2 | MVKTRAQRIKRMSVVDALCIRSQISVKSARYCKTVSKHLAKLQLAESGKNSSLVVCPSMGKTMKLYSMDAKRCKLSLLSTIDPSQRTPEVFMYMISSYNGIICCVNMIYDEDVENKFCDLQIWICNPITKETLLLPQGTPSFEFEPSIGVAYGSDVSDYKVYRIFCTGKIIPEERGPAEGFYVQEGRFFTKYGHSLAYECEVYSSSTGSWKNIGTVPCLPMSCSLRPYRRTGHIFVGGKVYWLVSLDAPGKILSVDLEGKFEVINLPAYADGLREDEQITEASHLINLKGSLGLLVLHPENMDVWVWKHDGERYSWVFQFKDVVPIKDDELILAVTALDNKIICVNETHWRIYDMETEKWKRRKSPRTGFRNPVVLPFTESVLPCNGGVKQ | failed
3 | MVKVSIIIPIYNVENYLDKCLDTAVNQTLGCIEIIGIDDGSTDKSRDILNKYAKKYSFIKIINKENGGLSSARNTGIINAKGEYIYFLDSDDYIEYDSMKICYEIATKNKLDIVSFDAESFVDGEGFTKKLKKYDRKDILDGNIKMGCEYFCELIKNKCYTASACLNFYRREFLIDNNLFFYDGILHEDELYTVKAYTLANKVRYIPYKLYFRRLRSNSITTQSISEKHLYGRLIAARESYRHYLGYKDVFDNDTNTCLLNHISNMYYFMLKDIYENKRIYNKRYIIEDKIINDIKSKKDIKSFKLDLQYRFPLIIYTIKKYLKKD | failed
4 | MVLAGGVGKRLLPLTRERPKPYLPLAGKPLYMYAVEQVAMVRSLLDRAVMVTPPGHPTPPGSLPSWLDTVEQQGEGVEAGLATALKRLGGGEEVVVSFVGYLARPNTLVRHVLDFYSVTRYKLVLALAPVTRGSESFGFVDADPSTGRVLGFSGSREEWMAGRGRVFAGVLAGDPEALEVLAGEGFVEGINTLARRGLVGSVVWPGEWLEVGYPCDLLEAPRLVVEAWAAVISAKARVARSSVIQGGVVIEEDAEVGEGAVVEGPAYLGRGAVVGRNSVVGPGVVLEEGAVVGDLVSIERSVMLERAEASGPSRLEGVVIGDGAYIAPLAAATNREGCTVVAPKTRLGPRATLEPGKTYTLEHHHHHH | failed
5 | MVLEIGLPPLHVGFIMAYSLLAASLSIFLGLALAEFDVVAHAVLAGYYAGLFFPMSVYTNFFTAAASGAPRPAKEYLPLLLAFILAAVAPLHGSTSTLATLFLLSQAFLLYYMALQAGRFRRDALARFSALAPPISGTGASLILLSSSQLGFLDALMSLTLAFSTPVPLLMAPMAIGASIYGLGPARGKEAIIRLSPALTAIPASILSVLTLSINPYLLPLSLYLVVMRPWRIVSELISVRRPKPPQLYLLSVHAATLAAIVSSLILASNSNIVEAGHAIMIGVIAPHALLHSIVRGGEIPFTRRPRSWTPIPPLLLAASTPLRFASKEASLALALLALSIHVASILDPHPRNIIPRAFRVEGGKQQSATTGG | failed
6 | MVLIYCYKYFHEFMEAFDRIQKNIMEAHMKKVIGAATATVFGLGAFTTTATAETIVTADVLNVREKPTTESKVVEKVKNGQELKVINTEDGWSKIELNGKEVFVSSEFTKDIYHVTANLLNVRTEANTESKILGRLKKDDVIESTNQVKDGWLQFEYKGKTAYVNVSFLSSTAPVEKKADEKTKQVAKVQKMVKAKEEAKTQKVTKAKETIKPKEEEKVQEVVKPKEEEKVQEVVKPKEEEKVQEVVKPKEEEKIQEVAKPKEEAKVQEVAKPKEEEKVQEVAKPKEEEKVQEVVKPKEEEKVQEVAKSKEEAKVQEVAKPKEEAKVQEVVKPKEEAKVQEEAKAQEIAKAKEEAKAQEIAKAKEEEKAREIAKAKEEAKAQEIAKAKEEAKAQEIAKAKEEAKAQEIAKAKEEEKAREIAKAKEEAKAQEIAKAKEEAKAREIAKAKEEAKAREAIKAKEESKNNTQSAKRELTVVATAYTADPSENGTYGGRVLTAMGHDLTANPNMRIIAVDPKVIPLGSKVWVEGYGEAIAGDTGSAIKGNRIDVLMGSKSKAMDWGRQTVKVKIL | failed
7 | MVLKGDAKRIVAMSSTHIAMLDAIGEVRCITGVSGIDYISNPDIQARRDSIGDVGYEGNINYELLLSLDPDLVLLYGVNGASAMESKLEELDIPFMYVGDYLEESPLGKAEWMVVLSEVTGKREKGEKAFAAIPVRYNALKKKVADSTLGLEHHHHHH | not failed
8 | MVLLLRYRSLTINLTPLIPKSQKFHTLQSFRNPNFISIPKISASTNNPTTTTNRSISDATKFAKSVLFIPPGVEIEELTDDMVLPGSNIVIGPFAGHSQIKEVEFVKSSARARDCPKDDRPEIAILGRSNVGKSSLINCLVRKKEVALTSKKPGKTQLINHFLVNKSWYIVDLPGYGFAKVSDAAKTDWSAFTKGYFLNRDSLVCVLLLIDASVPPQKIDLDCANWLGRNNVPMTFVFTKCDKMKATKGKRPDENIKAFQQIIRENFKVHPPWILTSSVSGLGRDELLLHMSQLRNYWDQ | failed
9 | MVLSEIFRGNNEVREAARAGVQIDTVSVASASDAASAADGSGKITGAIRPSAVAGSFYPADRTALKQLINQQLDYGRKLLQQLEPTLPAGVPRAVIVPHAGYIYSGTAAALAYALLERGRGSVTRAVIVGPTHRVAVRGVACSTAAAFETPLGTVPVDIAAERKALGLSVNEPLRSGTHARPGAPAPAMIVNAPTHAQEHAVEVQIPFLQTVLGPDLTIVPLNAGDATPQEVGDVLRALWGGPETVIVISSDLSHYHPHEVARALDDQTIADIAALHLPIHPRRACGAYPINGLLDVLKGRKDMRLFELGCSTSGDDGVVALAGQPRPAMRDADEPVVGYVSFAAWESKPEADALAGADDLGTSGTPSHGEVLLKLARAAIRERLHIEHPTAADSTASILAANPWLNEPGACFVTLTEGGRLRGCIGSLVAHRSLGKDVAEHAVDAATRDPRFTPVTAAEYPLLNVEVSVLGEPEPITVNSCDADSRGTGSKTATLASLQSGPQTDAVKRDGSNVERPVRSRTELEEVLRPGKDGLILADRRGRSATFLPQVWDELPDPHDFVAHLLAKAGIRPSYDWTDSEIDCQRYEVTAYAEH | failed
10 | MVLSVVVVGKPRCRSIAVAARERLHRYGEYPMSSNNASGKVVSVDEQAFENAGEQAADEDGFPVVDETPEFEAAVEQETQAKVDANHPDGIADTSEDRIHGVTLEQEERIRAREAELERISAQAELGTQDGREQRTRDIAAKRSAVRRAEFQTRAASVDPMADPERDDPRAELTQEQLAAVNKQSMRLAEKLDGWSRAAIGRRLGEAVVGGKDVTSAVVGVFEELQTAPGTVIPIGKLEDVNRKEVSIEGTVTRLWKPSSAAISQVGLIEDESGKTKFTSWVASEQPWIEEGEHVRIHGAAKNWYNGRVSVALTGWSTVHFPERGRWWEALEHHHHHH | failed
11 | MVLVTSVRDYINRMLQDISGMKVLILDSETVSNVSIVYSQSELLQKEVFLVEMIDSISVSKESMSHLKAVYFIRPTSDNIQKLRYQLANPRFGEYHLFFSNLLKDTQIHILADSDEQEVVQQVQEYYADFVSGDPYHFTLNMASNHLYMIPAVVDPSGLQRFSDRVVDGIAAVFLALKRRPVIRYQRTSDTAKRIAHETAKLMYQHESALFDFRRTESSPLLLVIDRRDDPVTPLLNQWTYQAMVHELIGLQDNKVDLKSIGSLPKDQQVEVVLSSEQDAFFKSNMYENFGDIGMNIKRMVDDFQQVAKSNQNIQTVEDMARFVDNYPEYKKMQGNVSKHVTLVTEMSKLVEARKLMTVSQTEQDLACNGGQGAAYEAVTDLLNNESVSDIDRLRLVMLYALRYEKENPVQLMQLFNKLASRSPKYKPGLVQFLLKQAGVEKRTGDLFGNRDLLNIARNMARGLKGVENVYTQHQPLLFQTMESITRGRLRDVDYPFVGDHFQQGRPQEVVIFMVGGTTYEESRSVALQNATNSGVRFILGGTAVLNSKRFLKDLEEAQRISRSGSHMV | failed
12 | MVLYIILAIIVIILIAVGVLFYLRSNKRQIIEKAIERKNEIETLPFDQNLAQLSKLNLKGETKTKYDAMKKDNVESTNKYLAPVEEKIHNAEALLDKFSFNASQSEIDDANELMDSYEQSYQQQLEDVNEIIALYKDNDELYDKCKVDYREMKRDVLANRHQFGEAASLLETEIEKFEPRLEQYEVLKADGNYVQAHNHIAALNEQMKQLRSYMEEIPELIRETQKELPGQFQDLKYGCRDLKVEGYDLDHVKVDSTLQSLKTELSFVEPLISRLELEEANDKLANINDKLDDMYDLIEHEVKAKNDVEETKDIITDNLFKAKDMNYTLQTEIEYVRENYYINESDAQSVRQFENEIQSLISVYDDILKEMSKSAVRYSEVQDNLQYLEDHVTVINDKQEKLQNHLIQLREDEAEAEDNLLRVQSKKEEVYRRLLASNLTSVPERFIIMKNEIDHEVRDVNEQFSERPIHVKQLKDKVSKIVIQMNTFEDEANDVLVNAVYAEKLIQYGNRYRKDYSNVDKSLNEAERLFKNNRYKRAIEIAEQVLESVEPGVTKHIEEEVIKQ | failed
13 | MVMIWYKALFSFNGRLNRQGFWIGFGINFIFLFIIANFGPKETAFSLTMVLPLLLASYSCVAVIIKRLHDRNRSARAILMMFIPLICYGVSLATQGTMAWLLGVMMPMFIGTMLLLEWGVFKSYPQANQYGEKGETFCFT | failed
14 | MVNFDEEVFRAYYEHKIKSFIKEELSNNLIKGNIFEFDIEKFLMHFPDACEVNDLIIERPKEIEEIILDIFKEAYVELFGEDKELEKIQIAFKNPKGCEKLIEEISAEDINKLVKFEGNILQAGKVNALLKKAVYYCNKRIKDENGGFLCKYTYTPCDGRVEIEIDDYFSEGEFIKDMLSPREVKKILENKKVWDKLVEKGKIPRCVDLKENDEVFKENLKEIKFILDEYDSIYVNIQEMEIQQPIDLMKNPEEPARSIRVFLENTPGIYAGRVNVIGRVMKREYRHNIPIYKIYIKSNYIKISESYNKIEVKDILRNEELIETLNELGRKKNIIDILSNYLISQIKGYELVKKAIFLQQIKGAFKFLPDGTPLRRDSHILLITDPGIGKSTMLRRIARLFPQNAYASVTTATGGGLTAIVTREATEIGDGWVVKPGVFVRANEGTACIDELTVDKNVMKYILEAMESQTIHVNKGGINVKLPARCAVLAACNPKRGRFDRNLTVIEQIDIPAPLLSRFDLIFPLMDKPNRKSDEEIAEHILNTHIETATKDYKILGAIDIDGITVDEKLLKYYIIYARSCAYIEENQDLYLGEFDETKLIMPYLTDKAKKMIKKYYLEMRKLGEGDNPIPITARQLEAIIRIAEMHAKARLSDKVEDVDAEVAISIIDDCLKQVAYDPETGTLDLDKIAGTPKSRRDKMDAVLNIIREIVSLRDDGLAPEEEIYEKAMAIGLSEKDVNDALEYLKKAGDIYNPRYGFWGLL | failed
15 | MVNILSLFTLAALWGGSFLFVRIAANPLGPAVLIEVRVAFAALTLLVVSFFLKKSLRFMSNIKHFLILGLFNSALPFLLFAYSAQVLNVSTLAVLNSTAPIWGAVIGAIWTRTRLSKDVIFGLILGMIGVSVLVGWEAINIGDEAIIPIITALIGAFSYGVATNYAKNAPSVEPFNNAHGSMWASVLLVLPLVPFMPVREEVTSDIIAAVFALGAVCTGLAYLLYFRLIKELGASSALTVTFIIPVFGILWGYLFLGETVGVNAIIGTILVVIGTMFVTGFASKFMSKKCV | failed
